From the supplement of paper PMC9170038

system: MS2 coat protein; assay: apparent KD of MS2 coat protein; higher = weaker reporter binding; conditions: Eterna round: R107; input ligand: arginine 13.2 mM
Method: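 RNA-MaP round R107: designed RNA switches with theophylline, tryptophan, arginine or FMN aptamers are transcribed on-chip within common flanks. They are titrated with SNAP-549-labelled MS2 coat protein in RNA-MaP buffer (100 mM Tris pH 7.5, 80 mM KCl, 4 mM MgCl2), without ligand or with the indicated ligand. Median apparent KD per design.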

Row | Sequence | apparent KD of MS2 coat protein
1 | UAUUAUCAGUCGGCCGCCACUGACACAUGAGGAUCACCCAUGUAAUUUGGGUUAUAUAUAAAUUACAGGACCGGGACAAAUGCUA [JR_Nu13_ExcTryptoB_Sub025] | 161 nM
2 | GGAUAGGACACGGCCGCCACUACCUAGGAUACUAGAAACAUUUCCUCACAUGAGGAUCACCCAUGUAGGACCGGGUGUCCUAUCG | 106 nM
3 | ACAUGAGGAUCACCCAUGUUGAGCACAGAAGGAGCGUGAUUAAGCACAGGUAGGUCGCUGUACUUAUCGAGCGUUAGCUCGAUAC [JR_Nu_SSArginiA_Sub030] | 21 nM
4 | ACAUGAGGAUCACCCAUGUACAUGAGGGAAGGAGCGGUACAUGAGCCAGGUAGGUCGCCCAUGAGCAUCAGCCAUGUACAUCAGC [vv,mmullin] | 40.9 nM
5 | AAUAAUAGGUGAUCUUAAGUCGUACCGUAACGAGGACCGGUACGGCCGCCACUCGAACAUGAGGAUCACCCAUGUAUGUAUGAUA [whbob_SS_trypto A_f5] | 44.7 nM
6 | UGUAUGUGAUUUGAUACCAGACCAGCUGGUGGUACAUGAGGAUCACCCAUGUAGGUUUGGGUCCCUUGGCAGCAAAUCGCAUACU [SSTheo B #24] | 54.6 nM
7 | CAGGCCUUGCCCGGUGUUCCGAAAGUGGAAGGAGCGCACAUUGGUGCAGGUAGGUCGCCACAUGAGGAUCACCCAUGUCUAGGCC [Aveatti] | 54.9 nM
8 | UACUGUCUAACGGCCGCCACUCAGUCUCGGUUGAUUAUCUUAAGUGACAUGAGGAUCACCCAUGUGAGGACCGGGUUGUGCAUAA [theeternabot_exclusion_MS2_Trp_B_40] | 60.4 nM
9 | GUGCCGCAUUCACAUGAGGAUCACCCAUGUCGAGGACCGGUACGGCCGCCACUCGACGUGCUUACAGGUCCUUUACGGCCCAAUA [Biedxele] | 30.7 nM
10 | AGCGACAUGCGUGAUACCAGCUACAUGAGGAUCACCCAUGUAAGUAGGAAACUACUGUGUAGCCCUUGGCAGCACAAUGCAUGUC [Exclusion - Theophylline B (Freestyle 24)] | 20.3 nM
11 | ACCUGUACGAAAAGUGCAGGACAUGGUAAACGAGGACCGGUACGGCCGCCACUCGAAUAACAAGUGGAUCACCCUUGUAACCAUG [TrypAS 5 #AlternativeMS2 #Zipper #StaticStem] | 39.6 nM
12 | AAGAUACUCUGAAGGAGCGUCAUAAAACAUGAGGAUCACCCAUGUGCGCGGGUGUAAUUAUGACAGGUAGGUCGCAGAGUAUUUA [Arg B SS t2] | 424 nM
13 | GGAGUAGGAAACUAUUCCAAUCCUCGUGAACGAGGACCGGUACGGCCGCCACUCGAUAAAUAAAUACAUGAGGAUCACCCAUGUU [Ex Tryptophan A 23] | 38 nM
14 | GCCAAAGGCUACAUGAGGAUCACCCAUGUACGAGGACCGGUACGGCCGCCACUCGUACGGCCUCCUACUGGACGGGAAACCGUCG [ETA NP+V+V2 #28] | 13.1 nM
15 | GUAUUUAUAUGAAGGAGCGUCGAAAAUGGGUAAACAUGAGGAUCACCCAUGUAAAGGGAACGACAGGUAGGUCGCAUAUGGAUAC [AstromonsSSArgB#25] | 111 nM
16 | ACCAGCACACAUGAUACCAGCGACAUGAGGAUCACCCAUGUACGGCGUGUAUCGAAAGGUUGCCCUUGGCAGCAUGAUAGUGCUA [Ratiarla] | 14.5 nM
17 | CCAUCUUCAUCGGCCGCCACUGAACCAAGGAGACAUGAGGAUCACCCAUGUAUGGGAAACCAUCAUAGGACCGGGAUGAAGGUGG [doubleHookLine] | 36 nM
18 | CAUACUUUAGUAUGACAUGUGGGCAGUGAUACCAGAUACGAAAGUAUCCCUUGGCAGCACAACAUGAGGAUCACCCAUGUAAUUA [Theophylline A 2] | 26.1 nM
19 | UGUAUGGACUGAAGGAGCGGGUUGAUAACAUGAGGAUCACCCAUGUAAAAGGCGAAAGCCGCCCAGGUAGGUCGCAGUCCAUACU | 4.19 nM
20 | UCGCUCUGGGUGAAUUCCGGAGAUGUGGAAGGAGCGGACGAAAGUCCAGGUAGGUCGCCAUCGAACAUGAGGAUCACCCAUGUAC [Same State - Arginine A (Freestyle 24)] | 55.8 nM
21 | AUAUUAGACCUGGAUACCAGCGACAUGAGGAUCACCCAUGUAUGUGCAUCAGCCAUGAUAUGCCCUUGGCAGCCACCGAGGUCGU [YYTMULLIN] | 14.1 nM
22 | UGGGUUGGACCAGGAAAUGGUCUGACGCACCGAGGACCGGUACGGCCGCCACUCGGCCGUACAUGAGGAUCACCCAUGUCGGUGU [#1 Same State - Tryptophan A Attempt #13 (HarryS)] | 107 nM
23 | AACCAUCUCGGCGAUACCAGUGCCUACGAGUACAUGAGGAUCACCCAUGUAGGUGACCGACACCCUUGGCAGCGCGAUUGAGUCA [theeternabot_sameState_MS2_Theo_B_45] | 70.9 nM
24 | ACCUGUACGAAAAGUGCAGGACAUGGAAAUCGAGGACCGGUACGGCCGCCACUCGUAUAAAACAAGUGGAUCACCCUUGUCCAUG [TrypAS 2 #AlternativeMS2 #Zipper #StaticStem] | 320 nM
25 | GCAUUACAUGAGGAUCACCCAUGUCUAGAUACCAGAUUUGUUUGAAUCCCUUGGCAGCUAGUGGACCACCGUACACGACAUACUA [theeternabot_sameState_MS2_Theo_A_17] | 29.8 nM
26 | GCACGACAUGAGGAUCACCCAUGUGCAGAUACCAGUAAUGUAUAUUACCCUUGGCAGCUGAGUAGGUCUGGAGGGCUAUAGGUAA [Same State Theophylline A GF11] | 11.6 nM
27 | AUGUCGUUGAAUAUAGCGGCUUGGAGUGAUACCAGCAUGAUCCAAUGCCCUUGGCAGCAUAACAUGAGGAUCACCCAUGUUCCAG [SSTheo A #26] | 32.7 nM
28 | UAUCGUCAGACGGCCGCCACUAGAACAUGAGGAUCACCCAUGUAGGCGGCCGAUUCCUCAUUAACUAGGACCGGGUCUGACGAAU [(Trp1)-(Ms2)-(T)'-(M)'-(Trp2)_Design11] | 11.5 nM
29 | CCAUGCGUAGGAAGGAGCGCAUACUUCACAUGAGGAUCACCCAUGUCGAGACGUGAGUCAGUGCAGGUAGGUCGCCUACGCAUGG [Same State - Arginine B (Freestyle 27)] | 16.6 nM

same assay, conditions: Eterna round: R107; input ligand: none

Row | Sequence | apparent KD of MS2 coat protein
30 | ACAUGAGGAUCACCCAUGUUGAGCACAGAAGGAGCGUGAUUAAGCACAGGUAGGUCGCUGUACUUAUCGAGCGUUAGCUCGAUAC [JR_Nu_SSArginiA_Sub030] | 22.3 nM
31 | ACAUGAGGAUCACCCAUGUACAUGAGGGAAGGAGCGGUACAUGAGCCAGGUAGGUCGCCCAUGAGCAUCAGCCAUGUACAUCAGC [vv,mmullin] | 115 nM
32 | AAUAAUAGGUGAUCUUAAGUCGUACCGUAACGAGGACCGGUACGGCCGCCACUCGAACAUGAGGAUCACCCAUGUAUGUAUGAUA [whbob_SS_trypto A_f5] | 168 nM
33 | CAGGCCUUGCCCGGUGUUCCGAAAGUGGAAGGAGCGCACAUUGGUGCAGGUAGGUCGCCACAUGAGGAUCACCCAUGUCUAGGCC [Aveatti] | 20 nM
34 | ACCUGUACGAAAAGUGCAGGACAUGGUAAACGAGGACCGGUACGGCCGCCACUCGAAUAACAAGUGGAUCACCCUUGUAACCAUG [TrypAS 5 #AlternativeMS2 #Zipper #StaticStem] | 223 nM
35 | AAGAUACUCUGAAGGAGCGUCAUAAAACAUGAGGAUCACCCAUGUGCGCGGGUGUAAUUAUGACAGGUAGGUCGCAGAGUAUUUA [Arg B SS t2] | 179 nM
36 | GCCAAAGGCUACAUGAGGAUCACCCAUGUACGAGGACCGGUACGGCCGCCACUCGUACGGCCUCCUACUGGACGGGAAACCGUCG [ETA NP+V+V2 #28] | 20.6 nM
37 | GUAUUUAUAUGAAGGAGCGUCGAAAAUGGGUAAACAUGAGGAUCACCCAUGUAAAGGGAACGACAGGUAGGUCGCAUAUGGAUAC [AstromonsSSArgB#25] | 160 nM
38 | UGUAUGGACUGAAGGAGCGGGUUGAUAACAUGAGGAUCACCCAUGUAAAAGGCGAAAGCCGCCCAGGUAGGUCGCAGUCCAUACU | 10.1 nM
39 | UCGCUCUGGGUGAAUUCCGGAGAUGUGGAAGGAGCGGACGAAAGUCCAGGUAGGUCGCCAUCGAACAUGAGGAUCACCCAUGUAC [Same State - Arginine A (Freestyle 24)] | 93.2 nM
40 | UGGGUUGGACCAGGAAAUGGUCUGACGCACCGAGGACCGGUACGGCCGCCACUCGGCCGUACAUGAGGAUCACCCAUGUCGGUGU [#1 Same State - Tryptophan A Attempt #13 (HarryS)] | 376 nM
41 | ACCUGUACGAAAAGUGCAGGACAUGGAAAUCGAGGACCGGUACGGCCGCCACUCGUAUAAAACAAGUGGAUCACCCUUGUCCAUG [TrypAS 2 #AlternativeMS2 #Zipper #StaticStem] | 773 nM
42 | GCACGACAUGAGGAUCACCCAUGUGCAGAUACCAGUAAUGUAUAUUACCCUUGGCAGCUGAGUAGGUCUGGAGGGCUAUAGGUAA [Same State Theophylline A GF11] | 12.3 nM
43 | CCAUGCGUAGGAAGGAGCGCAUACUUCACAUGAGGAUCACCCAUGUCGAGACGUGAGUCAGUGCAGGUAGGUCGCCUACGCAUGG [Same State - Arginine B (Freestyle 27)] | 17.6 nM

same assay, conditions: Eterna round: R107; input ligand: theophylline 20 uM

Row | Sequence | apparent KD of MS2 coat protein
44 | UAUUAUCAGUCGGCCGCCACUGACACAUGAGGAUCACCCAUGUAAUUUGGGUUAUAUAUAAAUUACAGGACCGGGACAAAUGCUA [JR_Nu13_ExcTryptoB_Sub025] | 366 nM
45 | GGAUAGGACACGGCCGCCACUACCUAGGAUACUAGAAACAUUUCCUCACAUGAGGAUCACCCAUGUAGGACCGGGUGUCCUAUCG | 284 nM
46 | ACAUGAGGAUCACCCAUGUUGAGCACAGAAGGAGCGUGAUUAAGCACAGGUAGGUCGCUGUACUUAUCGAGCGUUAGCUCGAUAC [JR_Nu_SSArginiA_Sub030] | 32.6 nM
47 | ACAUGAGGAUCACCCAUGUACAUGAGGGAAGGAGCGGUACAUGAGCCAGGUAGGUCGCCCAUGAGCAUCAGCCAUGUACAUCAGC [vv,mmullin] | 97.6 nM
48 | AAUAAUAGGUGAUCUUAAGUCGUACCGUAACGAGGACCGGUACGGCCGCCACUCGAACAUGAGGAUCACCCAUGUAUGUAUGAUA [whbob_SS_trypto A_f5] | 242 nM
49 | UGUAUGUGAUUUGAUACCAGACCAGCUGGUGGUACAUGAGGAUCACCCAUGUAGGUUUGGGUCCCUUGGCAGCAAAUCGCAUACU [SSTheo B #24] | 64.5 nM
50 | CAGGCCUUGCCCGGUGUUCCGAAAGUGGAAGGAGCGCACAUUGGUGCAGGUAGGUCGCCACAUGAGGAUCACCCAUGUCUAGGCC [Aveatti] | 111 nM
51 | UACUGUCUAACGGCCGCCACUCAGUCUCGGUUGAUUAUCUUAAGUGACAUGAGGAUCACCCAUGUGAGGACCGGGUUGUGCAUAA [theeternabot_exclusion_MS2_Trp_B_40] | 91.3 nM
52 | GUGCCGCAUUCACAUGAGGAUCACCCAUGUCGAGGACCGGUACGGCCGCCACUCGACGUGCUUACAGGUCCUUUACGGCCCAAUA [Biedxele] | 71.3 nM
53 | AGCGACAUGCGUGAUACCAGCUACAUGAGGAUCACCCAUGUAAGUAGGAAACUACUGUGUAGCCCUUGGCAGCACAAUGCAUGUC [Exclusion - Theophylline B (Freestyle 24)] | 37.2 nM
54 | ACCUGUACGAAAAGUGCAGGACAUGGUAAACGAGGACCGGUACGGCCGCCACUCGAAUAACAAGUGGAUCACCCUUGUAACCAUG [TrypAS 5 #AlternativeMS2 #Zipper #StaticStem] | 573 nM
55 | AAGAUACUCUGAAGGAGCGUCAUAAAACAUGAGGAUCACCCAUGUGCGCGGGUGUAAUUAUGACAGGUAGGUCGCAGAGUAUUUA [Arg B SS t2] | 515 nM
56 | GGAGUAGGAAACUAUUCCAAUCCUCGUGAACGAGGACCGGUACGGCCGCCACUCGAUAAAUAAAUACAUGAGGAUCACCCAUGUU [Ex Tryptophan A 23] | 71.4 nM
57 | GCCAAAGGCUACAUGAGGAUCACCCAUGUACGAGGACCGGUACGGCCGCCACUCGUACGGCCUCCUACUGGACGGGAAACCGUCG [ETA NP+V+V2 #28] | 34.1 nM
